As a reminder, the Kd is the concentration at which binding is half-saturated. Low values mean higher affinity, high ones lower affinity. One may read the koff as the first-order rate constant of dissociation. Low values mean a long-lived complex, high ones a short-lived complex. For orientation: kon means the second-order rate constant of association.

The source of these data is patent publication US20220265709A1.

Changes are numbered by the printed parent chain.

The chains are these.
B1: anti-BCMA sdAb BCMA8 (VHH, part only)
VHH: QVQLVESGGGSVQAGGSLRLSCAASGGTRSWNYMAWFRQAPGKEREDVAIIDNVGSTRYADSVKGRFTISQDTAQNTLYLQMNSLKPEDTAMYYCAARVSWCEDPPCGFDYWGQGTQVTVSS
modifications: affinity tag
B2: anti-BCMA sdAb BCMA9 (VHH, part only)
VHH: QVQLVESGGGSVQAGGSLRLSCKSSGAPYSSNCMAWFRQTPGKGREGVATIDLASHDTYYADSVKGRFTISRDNAKNTMYLQMNSLKPEDTAMYYCAATSWWPCTTFNGGYANWGQGTQVTVSS
modifications: affinity tag
B3: anti-BCMA sdAb BCMA12 (VHH, part only)
VHH: B2 VHH with Q3H, P28T, G44E, D57G, N84S, S85G, K87R, M93L, N113S
modifications: affinity tag
B4: anti-BCMA sdAb BCMA1 (VHH, part only)
VHH: QVQLVESGGGSVQAGGSLRLSCKASGAIYDTNCMAWFRQTPGKEREGVATIDLGNPITYYADSVKGRFTISRDNAKNTMYLQMNSLEPEDTAMYYCAATSWWPCTTFNAGYANWGQGTQVTVSS
modifications: affinity tag
B5: anti-BCMA sdAb BCMA13 (VHH, part only)
VHH: B4 VHH with Q3H, E87K, T105P, T106A, F107N, A109V
modifications: affinity tag
B6: anti-BCMA sdAb BCMA6 (VHH, part only)
VHH: QMQLVESGGGSVQAGGSLRLSCTASGYTFDDSAMGWYRQAPGNECELVSSISSDGSTYYSDSVKGRFTISQDNAKNTMYLQMNSLKPEDTAVYSCAASSGEDGGSWSTPCHFFGYWGQGTQVTVSS
modifications: affinity tag
B7: anti-BCMA sdAb BCMA7 (VHH, part only)
VHH: QVHLMESGGGSVQSGGSLRLSCAASGYTYSSYCMAWFRQAPGKEREGVAAIASDGSTYYTDSVKGRFTISQDNAKNTLYLQMNSLKPEDTAMYYCGADPVGCSWPDYWGQGTQVTVSS
modifications: affinity tag
B8: anti-BCMA sdAb BCMA10 (VHH, part only)
VHH: QVQLAESGGGLVQPGGSLRLSCAGSGFTFSSYDMNWVRQAPGKGLERVSTTFNGDDGTNYADSVLGRFTASRDKAKNTLYLQMNSLKTEDTAVYYCAAAVPGVDWYDTTRYKYWGQGTQVTVSS
modifications: affinity tag
B9: anti-BCMA sdAb BCMA11 (VHH, part only)
VHH: QVQLVESGGGVVQPGGSLRLSCAASGFAFSNYAMTWGRQAPGQRLEWVSTIDSGGGSTTYSDSVKGRFTISRDNAKNTLYLQLNNLKSEDTAVYYCSENVDCNGDYCYRANYWGQGTQVTVSS
modifications: affinity tag

Sequence of His-tagged human BCMA (ACRO Biosystems, Cat. #: BCA-H522y) (human) (Q02223 1-54): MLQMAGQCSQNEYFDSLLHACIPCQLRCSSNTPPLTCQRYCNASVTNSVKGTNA

The target of the first assay is Fc-fused Cynomolgus BCMA (ACRO Biosystems, Cat. #: BCA-C5253) (cynomolgus). Briefly: SPR (BIAcore T200) affinity ranking; crude sdAb captured via tag, antigen at 100 nM.
For B1, the Kd was 13 nM and the dissociation rate constant (koff) was determined as 560 s⁻¹.
On to B2, for which the Kd stood at 2.4 nM, the koff worked out at 0.0015 s⁻¹ and the kon came to 650000 M⁻¹ s⁻¹.
B3 gave a Kd of 4.3 nM, a koff of 0.004 s⁻¹ and a kon of 940000 M⁻¹ s⁻¹.
B4 had a Kd of 0.64 nM, an off-rate (koff) of 0.00043 s⁻¹ and a kon of 670000 M⁻¹ s⁻¹.
The molecule B5 registered a dissociation constant (Kd) of 13 nM, a koff of 0.018 s⁻¹ and a kon of 1.4e+06 M⁻¹ s⁻¹.
In the same order, the values of B6 are 0.83 nM, 0.00091 s⁻¹ and 1.1e+06 M⁻¹ s⁻¹.
For the molecule B7, the Kd was found to be 43 nM, the off-rate (koff) was found to be 0.056 s⁻¹ and the on-rate (kon) is 1.3e+06 M⁻¹ s⁻¹.
On to B8, for which the Kd was found to be 50 nM, the off-rate (koff) was 0.04 s⁻¹ and the kon worked out at 790000 M⁻¹ s⁻¹.
In the same order, the values of B9 are 16 nM, 0.007 s⁻¹ and 450000 M⁻¹ s⁻¹.

A further assay concerns the target His-tagged human BCMA (ACRO Biosystems, Cat. #: BCA-H522y) (human). The assay is described as above.
B1: the Kd worked out at 48 nM, the dissociation rate constant (koff) was found to be 0.37 s⁻¹ and the kon was 7.8e+06 M⁻¹ s⁻¹.
The molecule B2 yielded a Kd of 8.5 nM, a koff of 0.42 s⁻¹ and a kon of 5e+07 M⁻¹ s⁻¹.
In the case of B3, the Kd is 23 nM, the koff stood at 0.025 s⁻¹ and the kon was found to be 1.1e+06 M⁻¹ s⁻¹.
Regarding B4, the Kd came to 10 nM, the koff came to 0.29 s⁻¹ and the kon is 2.9e+07 M⁻¹ s⁻¹.
In the case of B5, the Kd was determined as 77 nM, the koff was found to be 0.053 s⁻¹ and the kon was determined as 690000 M⁻¹ s⁻¹.
Consider B6, for which the Kd turned out to be 4.9 nM, the koff turned out to be 0.026 s⁻¹ and the kon stood at 5.4e+06 M⁻¹ s⁻¹.
With B7, the Kd was determined as 46 nM, the off-rate constant (koff) was found to be 0.1 s⁻¹ and the kon was found to be 2.3e+06 M⁻¹ s⁻¹.
In the same order, the values of B8 are 47 nM, 0.13 s⁻¹ and 2.8e+06 M⁻¹ s⁻¹.
Regarding B9, the dissociation constant (Kd) came out at 53 nM, the koff was 0.009 s⁻¹ and the on-rate constant (kon) was 170000 M⁻¹ s⁻¹.
